Source: publication PMC7926355, “Mutation of GGMP Repeat Segments of Plasmodium falciparum Hsp70-1 Compromises Chaperone Function and Hop Co-Chaperone Binding” (International Journal of Molecular Sciences, 2021)

Assays:
Assay in all cases: SPR
Details in all cases: both partners purified
[1] = biological target: T1, Plasmodium falciparum Hsp70-1 (PfHsp70-1), wild type (Plasmodium falciparum 3D7, UniProt Q8IB24 1-677)
T1 construct: PfHsp70-1, cytosolic Hsp70 of Plasmodium falciparum 3D7, NCBI XP_001349336.1; called the full length PfHsp70-1 protein; pQE30 vector with N-terminal (His)6-tag; also called WT; wild type PfHsp70-1

PfHsp70-1_(G632) = PfHsp70-1_(G632) (Plasmodium falciparum 3D7, UniProt Q8IB24 1-677, 632GGMPGGMP639 to 632AALAAALA639)
PfHsp70-1_(G648) = PfHsp70-1_(G648) (Plasmodium falciparum 3D7, UniProt Q8IB24 1-677, 648[…]657 to 648[…]657)
PfHsp70-1_(G632-664) = PfHsp70-1_(G632-664) (Plasmodium falciparum 3D7, UniProt Q8IB24 1-677, 632[…]664 to 632[…]664)
PfHsp70-1∆G = PfHsp70-1∆G (Plasmodium falciparum 3D7, UniProt Q8IB24 1-677, deletion of residues 632-664)

Measured: binding result

B1: Plasmodium falciparum Hsp70-Hsp90 organising protein (PfHop) (natural protein, UniProt Q8ILC1 1-564, looked up)
chain: MVNKEEAQRLKELGNKCFQEGKYEEAVKYFSDAITNDPLDHVLYSNLSGAFASLGRFYEALESANKCISIKKDWPKGYIRKGCAEHGLRQLSNAEKTYLEGLKIDPNNKSLQDALSKVRNENMLENAQLIAHLNNIIENDPQLKSYKEENSNYPHELLNTIKSINSNPMNIRIILSTCHPKISEGVEKFFGFKFTGEGNDAEERQRQQREEEERRKKKEEEERKKKEEEEMKKQNRTPEQIQGDEHKLKGNEFYKQKKFDEALKEYEEAIQINPNDIMYHYNKAAVHIEMKNYDKAVETCLYAIENRYNFKAEFIQVAKLYNRLAISYINMKKYDLAIEAYRKSLVEDNNRATRNALKELERRKEKEEKEAYIDPDKAEEHKNKGNEYFKNNDFPNAKKEYDEAIRRNPNDAKLYSNRAAALTKLIEYPSALEDVMKAIELDPTFVKAYSRKGNLHFFMKDYYKALQAYNKGLELDPNNKECLEGYQRCAFKIDEMSKSEKVDEEQFKKSMADPEIQQIISDPQFQIILQKLNENPNSISEYIKDPKIFNGLQKLIAAGILKVR
notes: PfHop, Hsp70-Hsp90 organising protein of Plasmodium falciparum
binds: [1] | PfHsp70-1_(G632) | PfHsp70-1_(G648) | PfHsp70-1_(G632-664) | PfHsp70-1∆G
